Consider one sequence from patent US20180282403A1, “AGENTS FOR REDUCING THE ACTIVITY OF GDF15” (GENAGON THERAPEUTICS AB, priority 2015, published 2018).

The assay has as its target T1, GDF15 (Homo sapiens, UniProt Q99988).
T1 construct: purchased Abcam
T1 sequence (Q99988 197-308 limits assumed): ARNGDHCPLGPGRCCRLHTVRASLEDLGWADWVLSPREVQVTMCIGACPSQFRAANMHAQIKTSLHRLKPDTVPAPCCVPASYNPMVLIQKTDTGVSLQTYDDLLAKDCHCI
Kind of assay: Pepstar peptide array: GDF15 binding to 15-mers of extracellular loop2 (ECD3) of QRFPR. The note with it: amino acid walk and alanine scan of 15-mers; FIG. 12. From the text:
In order to determine the key amino acids and a minimal epitope present in the third extracellular domain of QRFPR (extracellular loop 2) we designed a Pepstar peptide array, purchased from JPT peptides. In short the array included complete coverage of the extracellular loop2 of QRFPR, divided into 15-mers. Peptides of this length (15-mers) were selected based on recommended length by the manufacturer, based on factors such as efficiency of synthesis, purity and yield by FMOC chemistry. The 15-mers were either varied according to amino acid walk, single or double alanine scan. Each set was analysed in triplicates. GDF15 was diluted into PBS-T (0.05% Tween-20) and incubated under mild agitation on an orbital shaker overnight at +4 C. Washes was done under agitation on a Sky line orbital shaker DOS-10L, ELMI.
Primary antibodies against GDF15 were added to wells with prior GDF15 incubation and to adjacent control wells where GDF15 had been omitted (only PBS-T) and incubated for 1 hr RT under agitation on orbital shaker. After repeated washes fluorophore-conjugated secondary antibodies were added, and after final washes the array was analysed on a G2502 Microarray scanner, Agilent Technologies. Fluorescence values from technical controls and control wells (no GDF15) were subtracted and resulting values in triplicate was analysed in Excel and Prism.

For the sequence “FLYEKEHIC (listed as Homo sapiens) [SEQ ID NO:11]”, the “GDF15 binding to immobilised QRFPR ECD3 peptides” value is given as “essential for GDF15 binding”.
